Paper PMC2553845, “A Specificity Map for the PDZ Domain Family” (PLoS Biology, 2008)
Where no end group is shown, it is not given here.

Assays:
Experiment in all cases: ELISA; competition ELISA as described in ref. 20: synthetic peptide in solution blocks PDZ domain binding to immobilized peptide; IC50 = peptide concentration that blocked 50% of binding; no detectable interaction = IC50 > 500 μM
Details in all cases: both partners purified
SCRIB PDZ domain 1 = biological target: T1, SCRIB PDZ domain 1 (human, UniProt Q14160 728-815)
T1 construct: also called SCRIB-1

SCRIB PDZ domain 2 = biological target: T2, SCRIB PDZ domain 2 (human, UniProt Q14160 862-950)
T2 construct: also called SCRIB-2
T2 sequence (looked up): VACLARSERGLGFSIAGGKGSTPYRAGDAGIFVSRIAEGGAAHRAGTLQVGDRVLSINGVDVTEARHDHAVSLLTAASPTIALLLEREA

SCRIB PDZ domain 3 = biological target: T3, SCRIB PDZ domain 3 (human, UniProt Q14160 1004-1093)
T3 construct: also called SCRIB-3
T3 sequence (looked up): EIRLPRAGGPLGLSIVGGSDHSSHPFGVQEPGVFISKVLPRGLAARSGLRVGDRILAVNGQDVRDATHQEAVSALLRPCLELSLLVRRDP

Measured: IC50

T1 sequence (Q14160 728-815): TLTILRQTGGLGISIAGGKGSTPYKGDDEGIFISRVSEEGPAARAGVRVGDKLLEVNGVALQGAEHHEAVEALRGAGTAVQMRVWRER

RQIKIWFQNRRMKWKKRSWFEAWA (not fully specified (C-terminus)) [designed nonbinding peptide Π–RSWFEAWA (peptide 15)]
> 500 µM: SCRIB PDZ domain 1 | SCRIB PDZ domain 2 | SCRIB PDZ domain 3
